Source: patent US20110021611A1

Molecular target: CD81 on Huh7.5 cells (human) (UniProt P60033)
Assay: cell-based or functional assay

Sequence of UniProt P60033 (P60033 whole entry): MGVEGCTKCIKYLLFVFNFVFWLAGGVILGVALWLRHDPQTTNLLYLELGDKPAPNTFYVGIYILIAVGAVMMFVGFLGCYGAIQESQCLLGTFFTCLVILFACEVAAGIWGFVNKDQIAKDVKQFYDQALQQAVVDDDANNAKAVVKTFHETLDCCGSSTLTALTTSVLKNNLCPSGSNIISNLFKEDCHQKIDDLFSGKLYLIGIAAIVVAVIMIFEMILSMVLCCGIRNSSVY

Q: How did the inhibition of infection of Huh7.5 cells with SA13/JFH1C3405G-A3696G virus (FFU count) turn out when “anti-CD81 (JS-81, BD Biosciences, Pharmingen) (antibody)” was run?
A: The inhibition of infection of Huh7.5 cells with SA13/JFH1C3405G-A3696G virus (FFU count) was 90 % inhibition.
